Source: IntAct's records for PubMed 11846417

What was measured:
actn2_human ACTN2 = actn2_human ACTN2 (UniProt P35609)
telt_human TCAP = telt_human TCAP (UniProt O15273)
telt_human TCAP, sequence (O15273 whole entry): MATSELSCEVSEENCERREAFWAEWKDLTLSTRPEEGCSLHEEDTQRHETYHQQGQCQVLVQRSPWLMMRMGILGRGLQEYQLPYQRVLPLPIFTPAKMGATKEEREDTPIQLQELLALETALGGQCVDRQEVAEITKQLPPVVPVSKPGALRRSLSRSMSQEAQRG

actn2_human ACTN2, sequence (P35609 whole entry): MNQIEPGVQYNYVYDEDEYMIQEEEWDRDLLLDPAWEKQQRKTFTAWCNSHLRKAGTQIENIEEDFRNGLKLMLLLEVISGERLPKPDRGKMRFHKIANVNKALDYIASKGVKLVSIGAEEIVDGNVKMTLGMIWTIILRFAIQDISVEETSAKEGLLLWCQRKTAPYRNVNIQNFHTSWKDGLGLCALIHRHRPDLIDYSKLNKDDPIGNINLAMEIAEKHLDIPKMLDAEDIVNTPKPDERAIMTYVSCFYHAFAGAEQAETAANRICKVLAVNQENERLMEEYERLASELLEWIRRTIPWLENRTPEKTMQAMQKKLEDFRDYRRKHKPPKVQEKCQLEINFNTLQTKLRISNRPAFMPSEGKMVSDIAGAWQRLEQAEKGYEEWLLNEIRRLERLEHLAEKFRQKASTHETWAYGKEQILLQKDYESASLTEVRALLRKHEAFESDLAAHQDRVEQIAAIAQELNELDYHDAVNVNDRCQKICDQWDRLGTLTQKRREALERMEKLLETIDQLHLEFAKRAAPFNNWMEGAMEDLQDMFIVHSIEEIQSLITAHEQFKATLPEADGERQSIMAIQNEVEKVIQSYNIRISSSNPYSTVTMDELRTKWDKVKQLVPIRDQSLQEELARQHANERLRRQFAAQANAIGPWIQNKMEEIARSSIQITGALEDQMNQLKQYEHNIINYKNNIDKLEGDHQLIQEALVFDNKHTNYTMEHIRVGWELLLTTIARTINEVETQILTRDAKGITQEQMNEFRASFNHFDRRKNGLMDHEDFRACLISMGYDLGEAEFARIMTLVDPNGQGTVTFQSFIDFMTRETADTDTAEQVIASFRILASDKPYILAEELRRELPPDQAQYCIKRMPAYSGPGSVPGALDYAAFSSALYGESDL

| Substance | effect of a mutation on the interaction (actn2_human ACTN2) | effect of a mutation on the interaction (telt_human TCAP) |
| --- | --- | --- |
| Titin (Homo sapiens), Q8WZ42 A743V | decreasing interaction |  |
| Titin (Homo sapiens), Q8WZ42 V54M |  | decreasing interaction |
